Assay [1] addresses N-domain of cardiac troponin C with the L48Q mutation, cNTnC(L48Q) (UniProt P63316). Kind of assay: NMR titration.
The target of assay [2] is cardiac troponin I (cTnI), rat wild type (rat) (UniProt P23693). The assay can be described thus: ITC. Background: Isothermal titration calorimetry measures the heat released or taken up as one component is titrated into another.
Assay [3] addresses cTnI switch peptide 147-163 (Homo sapiens) (UniProt P19429). The assay can be described thus: NMR. The conditions noted are these: cited from earlier work.

Sequence of cardiac troponin I (cTnI), rat wild type (rat) (P23693 whole entry): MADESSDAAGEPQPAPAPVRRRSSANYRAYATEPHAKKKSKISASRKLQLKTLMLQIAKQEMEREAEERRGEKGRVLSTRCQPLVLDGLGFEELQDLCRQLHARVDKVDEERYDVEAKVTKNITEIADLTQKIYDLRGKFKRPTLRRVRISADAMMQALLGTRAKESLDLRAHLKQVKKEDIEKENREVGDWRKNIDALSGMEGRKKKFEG

Usually Kd stands for the equilibrium constant for the complex coming apart. With “cTnI peptide corresponding to residues 147-163, cTnI_(147-163) switch peptide”, the Kd in assay [1] amounted to 61 µM.

In assay [2], “cardiac troponin C L48Q variant, cTnC(L48Q) (from UniProt Q4PP99 1-161) (natural protein)” yielded an equilibrium dissociation constant (Kd) of 0.132 µM and a dH of -5.28 kcal/mol.

Consider “cNTnC N-terminal domain (from UniProt P63316)”, for which the Kd in assay [3] was 150 µM.

The record behind these values is publication PMC3437384.
